In paper PMC2928751:

What was measured:
[1] = biological target: 35S-radiolabeled JNK1, P45983-2; test: peptide array probed with 35S-labeled JNK1, Phosphorimager quantification; settings: read off a plot
[2] = biological target: MLL4 D-site peptide (human); test: peptide or protein array; 17-mer peptides linked by the C-terminus to a nitrocellulose membrane, in duplicate, probed with [35S]-methionine labelled JNK1; PhosphorImager signal normalised to MKK7-D2 = 100%
[3] = biological target: Gli3 D-site peptide (human); test: as above
[4] = biological target: Neil1 D-site peptide (human); test: as above

How did the percent of parent (% of MKK7-D2 binding) ([1]; parent: est. 100) turn out when “MKK7-D2 peptide (positive control) MKK7 Mut (alanine substitutions at the critical basic and hydrophobic residues; not printed)” was run?
The percent of parent (% of MKK7-D2 binding) was 12.

With “MKK4 D-site peptide (positive control) MKK4 Mut (alanine substitutions at the critical basic and hydrophobic residues; not printed)” as the substance, how does the response (% of MKK7-D2 binding) ([1]; parent: est. 520) read?
The response (% of MKK7-D2 binding) was 28.

With “35S-radiolabeled JNK1 (from UniProt P45983-2 1-384) (enzyme)” as the substance, how does the binding normalised to the MKK7-D2 positive control [2] read?
The binding normalised to the MKK7-D2 positive control was 161 % of MKK7-D2.

What about the binding normalised to the MKK7-D2 positive control [3] of the same substance?
The binding normalised to the MKK7-D2 positive control was 193 % of MKK7-D2.

What about the binding normalised to the MKK7-D2 positive control [4] of the same substance?
Its binding normalised to the MKK7-D2 positive control is 198 % of MKK7-D2.
